Measured values as given in doi:10.1101/2023.12.14.571638, “Structural basis of a regulatory switch in mammalian complex I” (bioRxiv, 2023).

B1: ND6 (natural protein, Bos taurus (bovine), UniProt P03924 1-175, looked up)
chain: MMLYIVFILSVIFVMGFVGFSSKPSPIYGGLGLIVSGGVGCGIVLNFGGSFLGLMVFLIYLGGMMVVFGYTTAMATEQYPEIWLSNKAVLGAFVTGLLMEFFMVYYVLKDKEVEVVFEFNGLGDWVIYDTGDSGFFSEEAMGIAALYSYGTWLVIVTGWSLLIGVVVIMEITRGN
notes: ND6, core membrane subunit of respiratory complex I, Bos taurus; endogenous subunit of the purified enzyme
B2: NDUFA8 (natural protein, Bos taurus (bovine), UniProt P42029 1-172, looked up)
chain: MPGIVELPSLEDLKVQEVKVSSSVLKAAAHHYGAQCDKPNKEFMLCRWEEKDPRRCLEEGKLVNQCALEFFRQIKRHCAEPFTEYWTCIDYSGLQLFRRCRKQQAQFDECVLDKLGWVRPDLGDLSKVTKVKTDRPLPENPYHSRARPEPNPEVEGDLKPARHGSRLFFWTM
notes: NDUFA8, supernumerary subunit of respiratory complex I, Bos taurus; endogenous subunit of the purified enzyme
B3: NDUFA1 (natural protein, Bos taurus (bovine), UniProt Q02377 1-70, looked up)
chain: MWFEVLPGIAVMGVCLFIPGMATARIHRFSNGGKEKRVAHYPYQWYLMERDRRVSGVNRSYVSKGLENID
notes: NDUFA1, supernumerary subunit of respiratory complex I, Bos taurus; endogenous subunit of the purified enzyme
B4: NDUFA13 (natural protein, Bos taurus (bovine), UniProt Q95KV7 1-144, looked up)
chain: MAASKVKQDMPPVGGYGPIDYKRNLPRRGLSGYSMFAVGIGALLFGYWSMMKWNRERRRLQIEDFEARIALMPLLQAEKDRRVLQMLRENLEEEATVMKDVPGWKVGESVFHTTRWVTPMMGELYGLRASEEVLSATYGFIWYT
notes: NDUFA13, supernumerary subunit of respiratory complex I, Bos taurus

Molecular target: T1, ND1 (Bos taurus (bovine), UniProt P03887 1-318)
T1 construct: ND1, core membrane subunit of respiratory complex I (NADH:ubiquinone oxidoreductase), Bos taurus; endogenous subunit of the purified enzyme; also called subunit ND1
T1 sequence (P03887 whole entry): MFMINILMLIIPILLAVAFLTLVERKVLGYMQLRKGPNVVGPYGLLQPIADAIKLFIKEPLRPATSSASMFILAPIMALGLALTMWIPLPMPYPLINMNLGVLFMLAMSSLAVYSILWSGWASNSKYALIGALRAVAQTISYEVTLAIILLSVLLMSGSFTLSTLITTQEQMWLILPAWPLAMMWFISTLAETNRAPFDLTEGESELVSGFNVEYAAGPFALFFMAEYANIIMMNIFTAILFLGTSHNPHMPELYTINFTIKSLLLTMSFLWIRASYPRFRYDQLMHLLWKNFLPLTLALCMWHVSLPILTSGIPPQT
Assay: cryo-EM structure; bovine complex I purified in LMNG, reconstituted into proteoliposomes (DOPC:DOPE:cardiolipin 8:1:1, ubiquinone-10; 10 mM MOPS-KOH pH 7.5, 50 mM KCl), on graphene oxide grids; closed, open1 and open2 states, outward- and inward-facing; best map CI-out-closed 2.5 Å
Conditions: both partners purified

Binder | binding result
B1 | binds
B2 | binds
B3 | binds
B4 | binds
